The target in assay [1] is Diaphorase. Description: peptide array, 10 uM labeled diaphorase, with FAD.
Assay [2] has as its target Diaphorase. The assay can be described thus: peptide array, 1 uM diaphorase, binding without FAD / with FAD.
For assay [3], the target named is Diaphorase. Description: peptide array, 1 uM labeled diaphorase, with FAD.
The target in assay [4] is Diaphorase. The assay can be described thus: peptide array, 1 uM labeled diaphorase, no FAD.
Assay [5] addresses Diaphorase. The assay can be described thus: peptide array, 10 uM diaphorase, binding without FAD / with FAD.
Assay [6] addresses Diaphorase. The assay can be described thus: peptide array, 10 uM labeled diaphorase, no FAD.

In the case of YSVDYWYQVDGSG, the fluorescence in assay [1] came to 19200; in assay [3] it was 10400; in assay [4], 1800; in assay [6] it was 19800. Further, the results for the noFAD/FAD in assay [2] and in assay [5] were 0.173 and 1.03, respectively.

For the molecule LAKQNRVEDGSG, the fluorescence was 3700 in assay [1], 1440 in assay [3], 770 in assay [4] and 2950 in assay [6]. Besides, the noFAD/FAD in assay [2] was 0.537; in assay [5], 0.797.

As for VVQALFDGSG, the fluorescence in assay [1] is 21200; in assay [3], 2300; in assay [4], 1470; in assay [6], 9480. The noFAD/FAD was 0.637 in assay [2] and 0.448 in assay [5].

Regarding VKDGANKHYWRVSGSG, the fluorescence in assay [1] was found to be 17800; in assay [3] it was 12300; in assay [4] it was 2220; in assay [6], 20400. Moreover, the noFAD/FAD in assay [2] was 0.18; in assay [5] it was 1.14.

For the molecule QLLQLLFGGSG, the fluorescence in assay [1] worked out at 53400; in assay [3], 6310; in assay [4], 3230; in assay [6], 19500. Further, the noFAD/FAD in assay [2] is 0.511; in assay [5] it was 0.366.

For the molecule EAVQKLLFSGSG, the fluorescence in assay [1] turned out to be 17700; in assay [3], 2420; in assay [4], 1460; in assay [6] it was 5390. Also, the noFAD/FAD turned out to be 0.602 in assay [2] and 0.304 in assay [5].

Regarding ELFGALFKGGSG, the fluorescence was determined as 25300 in assay [1], 3400 in assay [3], 2080 in assay [4] and 12900 in assay [6]. Further, the noFAD/FAD came to 0.612 in assay [2] and 0.511 in assay [5].

In the case of YSALFGLQEDGSG, the fluorescence in assay [1] amounted to 16900; in assay [3] it was 2100; in assay [4] it was 1230; in assay [6], 8530. Further, the noFAD/FAD in assay [2] was 0.583; in assay [5], 0.506.

On to RPLQVQRGGS, for which the fluorescence in assay [1] amounted to 41100; in assay [3], 14400; in assay [4], 5410; in assay [6], 53200. Also, the figures for the noFAD/FAD in assay [2] and in assay [5] were 0.375 and 1.3, respectively.

In the case of RYNLYKPSDGSG, the fluorescence in assay [1] turned out to be 18200; in assay [3] it was 1250; in assay [4], 3570; in assay [6], 50300. Besides, the noFAD/FAD in assay [2] was found to be 2.87; in assay [5], 2.77.

As to LDRLGEYQFSGSG, the fluorescence in assay [1] amounted to 7140; in assay [3], 1160; in assay [4] it was 709; in assay [6], 3000. In addition, the noFAD/FAD in assay [2] turned out to be 0.609; in assay [5], 0.419.

In the case of VERASYNLDGSG, the fluorescence in assay [1] came out at 3370; in assay [3], 2240; in assay [4], 759; in assay [6] it was 2900. Besides, the noFAD/FAD is 0.339 in assay [2] and 0.86 in assay [5].

For NVSDLSQFYLSGSG, the fluorescence in assay [1] came out at 27800; in assay [3], 3440; in assay [4], 2140; in assay [6] it was 6740. The figures for the noFAD/FAD in assay [2] and in assay [5] were 0.624 and 0.242, respectively.

As for YVWGLELSGGSG, the fluorescence in assay [1] worked out at 36300; in assay [3], 4690; in assay [4], 2610; in assay [6], 17300. The figures for the noFAD/FAD in assay [2] and in assay [5] were 0.556 and 0.476, respectively.

As to DLDKAFGGSG, the fluorescence is 2140 in assay [1], 2050 in assay [3], 607 in assay [4] and 1850 in assay [6]. Besides, the noFAD/FAD in assay [2] came out at 0.296; in assay [5], 0.865.

Turning to AQVAVDGFYVDGSG, the fluorescence in assay [1] was 22700; in assay [3] it was 3090; in assay [4], 2010; in assay [6], 12600. Moreover, the noFAD/FAD in assay [2] worked out at 0.652; in assay [5] it was 0.555.

For EGYANKLLALFSGSG, the fluorescence in assay [1] amounted to 10400; in assay [3], 1730; in assay [4], 1030; in assay [6] it was 6650. For the same molecule, the noFAD/FAD stood at 0.599 in assay [2] and 0.639 in assay [5].

As to LKQLFLEGGSG, the fluorescence in assay [1] came to 23500; in assay [3], 2470; in assay [4] it was 1560; in assay [6], 8700. The noFAD/FAD in assay [2] is 0.63; in assay [5], 0.369.

Take FGKLYQLYNDGSG: the fluorescence is 34200 in assay [1], 3050 in assay [3], 1910 in assay [4] and 15700 in assay [6]. Also, the results for the noFAD/FAD in assay [2] and in assay [5] were 0.627 and 0.46, respectively.

As for VLSLNQVYSEGSG, the fluorescence in assay [1] stood at 21800; in assay [3], 2710; in assay [4], 1670; in assay [6], 9850. Also, the noFAD/FAD worked out at 0.619 in assay [2] and 0.452 in assay [5].

On to KHSFQKELGGSG, for which the fluorescence in assay [1] is 300; in assay [3] it was 728; in assay [4] it was 2090; in assay [6], 2390. Besides, the noFAD/FAD in assay [2] was 2.87; in assay [5] it was 0.794.

Consider LLGFLGGSG, for which the fluorescence in assay [1] came to 40300; in assay [3], 4140; in assay [4], 2320; in assay [6], 26300. Also, the noFAD/FAD came to 0.559 in assay [2] and 0.652 in assay [5].

On to SVLEGYQAVFGGSG, for which the fluorescence in assay [1] came to 21500; in assay [3], 2660; in assay [4], 1340; in assay [6] it was 6070. For the same molecule, the noFAD/FAD is 0.503 in assay [2] and 0.282 in assay [5].

As to FQFGKVVSDGSG, the fluorescence in assay [1] was found to be 20200; in assay [3] it was 2470; in assay [4] it was 1570; in assay [6] it was 12700. Further, the results for the noFAD/FAD in assay [2] and in assay [5] were 0.637 and 0.631, respectively.

For AFYGLELGGSG, the fluorescence is 36700 in assay [1], 4180 in assay [3], 2260 in assay [4] and 16500 in assay [6]. Besides, the noFAD/FAD in assay [2] is 0.541; in assay [5], 0.45.

For RSHPKHNVGSG, the fluorescence in assay [1] was found to be 12200; in assay [3], 3880; in assay [4] it was 1950; in assay [6] it was 17000. The noFAD/FAD in assay [2] was found to be 0.504; in assay [5] it was 1.39.

Regarding VFGVLSQVARDGSG, the fluorescence in assay [1] was found to be 51500; in assay [3], 6640; in assay [4], 4250; in assay [6], 26200. The noFAD/FAD in assay [2] is 0.64; in assay [5], 0.509.

As to WLDLGVFPYQHLGSG, the fluorescence was determined as 33600 in assay [1], 3430 in assay [3], 2200 in assay [4] and 25700 in assay [6]. For the same molecule, the noFAD/FAD in assay [2] is 0.641; in assay [5], 0.765.
